Test: Hematology of a healthy dog given 1.5 mg/kg on day 1 and 2.0 mg/kg on day 70, sub-mucosa
Type: in vivo
Description: Before each dose, the dog was examined by clinical chemistry, hematology, and urinalysis. Additional examinations of clinical chemistry and hematology were performed on days 7, 14, and 42 after the first dose. Additional tests of urinalysis were performed on days 7 and 14 after the first dose. The potential drug-induced toxicities were monitored for 56 days after the second dose. Specifically, clinical chemistry and urinalysis were performed on days 7, 14, 21, and 56, and hematology was performed on days 7, 14, and 56 after the second dose to evaluate the tolerability and toxicity of the formulation.
Hematology examinations were performed at pre- and post-dose for both injections. The injections were given via the sub-mucosa in the mouth.

HA-cis-[Pt(NH3)2(N^α-Acetyl-L-Lysine)] [75HA-Lys-Pt]
Differential white blood cell count, % BASO (2 mg/kg, 7 days after): 0.9% | Differential white blood cell count, % EOS (2 mg/kg, 7 days after): 1.9% | Differential white blood cell count, % LUC (2 mg/kg, 7 days after): 0.8% | Differential white blood cell count, % LYMPH (2 mg/kg, 7 days after): 29% | Differential white blood cell count, % MONO (2 mg/kg, 7 days after): 7.5% | Differential white blood cell count, % NEUT (2 mg/kg, 7 days after): 60% | Hematocrit (2 mg/kg, 7 days after): 38% | Hemoglobin (2 mg/kg, 7 days after): 12.7 g/dL | Hemoglobin distribution width (2 mg/kg, 7 days after): 1.84 g/dL | Mean corpuscular (cell) hemoglobin (2 mg/kg, 7 days after): 21.9 pg | Mean corpuscular (cell) hemoglobin concentration (2 mg/kg, 7 days after): 33.4 g/dL | Mean corpuscular (cell) volume (2 mg/kg, 7 days after): 65.6 fL | Platelet count (2 mg/kg, 7 days after): 36 10^3/μL | Red blood cell count (2 mg/kg, 7 days after): 5.79 10^6/μL | Red cell distribution width (2 mg/kg, 7 days after): 13.5% | Reticulocyte count (2 mg/kg, 7 days after): 1.59% | White blood cell count (2 mg/kg, 7 days after): 8.2 10^3/μL | Differential white blood cell count, % BASO (2 mg/kg, 14 days after): 0.5% | Differential white blood cell count, % EOS (2 mg/kg, 14 days after): 3.4% | Differential white blood cell count, % LUC (2 mg/kg, 14 days after): 0.6% | Differential white blood cell count, % LYMPH (2 mg/kg, 14 days after): 28.5% | Differential white blood cell count, % MONO (2 mg/kg, 14 days after): 4.3% | Differential white blood cell count, % NEUT (2 mg/kg, 14 days after): 62.7% | Hematocrit (2 mg/kg, 14 days after): 35.6% | Hemoglobin (2 mg/kg, 14 days after): 11.8 g/dL | Hemoglobin distribution width (2 mg/kg, 14 days after): 2.33 g/dL | Mean corpuscular (cell) hemoglobin (2 mg/kg, 14 days after): 21.6 pg | Mean corpuscular (cell) hemoglobin concentration (2 mg/kg, 14 days after): 33.1 g/dL | Mean corpuscular (cell) volume (2 mg/kg, 14 days after): 65.2 fL | Platelet count (2 mg/kg, 14 days after): 232 10^3/μL | Red blood cell count (2 mg/kg, 14 days after): 5.47 10^6/μL | Red cell distribution width (2 mg/kg, 14 days after): 14.2% | Reticulocyte count (2 mg/kg, 14 days after): 3.2% | White blood cell count (2 mg/kg, 14 days after): 10.43 10^3/μL | Differential white blood cell count, % BASO (2 mg/kg, 56 days after): 0.7% | Differential white blood cell count, % EOS (2 mg/kg, 56 days after): 4.3% | Differential white blood cell count, % LUC (2 mg/kg, 56 days after): 0.5% | Differential white blood cell count, % LYMPH (2 mg/kg, 56 days after): 26.6% | Differential white blood cell count, % NEUT (2 mg/kg, 56 days after): 63.4% | Hematocrit (2 mg/kg, 56 days after): 36.9% | Hemoglobin (2 mg/kg, 56 days after): 12.1 g/dL | Hemoglobin distribution width (2 mg/kg, 56 days after): 2.04 g/dL | Mean corpuscular (cell) hemoglobin (2 mg/kg, 56 days after): 21.4 pg | Mean corpuscular (cell) hemoglobin concentration (2 mg/kg, 56 days after): 32.8 g/dL | Mean corpuscular (cell) volume (2 mg/kg, 56 days after): 65.4 fL | Red blood cell count (2 mg/kg, 56 days after): 5.64 10^6/μL | Red cell distribution width (2 mg/kg, 56 days after): 13.7% | Reticulocyte count (2 mg/kg, 56 days after): 1.3% | White blood cell count (2 mg/kg, 56 days after): 11.3 10^3/μL | Differential white blood cell count, % BASO ([…], 7 days after): 0.7% | Differential white blood cell count, % EOS ([…], 7 days after): 2.0% | Differential white blood cell count, % LUC ([…], 7 days after): 0.6% | Differential white blood cell count, % LYMPH ([…], 7 days after): 37.6% | Differential white blood cell count, % NEUT ([…], 7 days after): 55.4% | Hematocrit ([…], 7 days after): 37.8% | Hemoglobin ([…], 7 days after): 12.7 g/dL | Hemoglobin distribution width ([…], 7 days after): 2.08 g/dL | Mean corpuscular (cell) hemoglobin ([…], 7 days after): 23.0 pg | Mean corpuscular (cell) hemoglobin concentration ([…], 7 days after): 33.6 g/dL | Mean corpuscular (cell) volume ([…], 7 days after): 68.4 fL | Platelets (footnote a) ([…], 7 days after): ^aPlatelets appear adequate. Platelet clumps observed, number not reported. | Red blood cell count ([…], 7 days after): 5.53 10^6/μL | Red cell distribution width ([…], 7 days after): 13.3% | Reticulocyte count ([…], 7 days after): 1.40% | White blood cell count ([…], 7 days after): 7.69 10^3/μL | Differential white blood cell count, % BASO ([…], 14 days): 0.7% | Differential white blood cell count, % EOS ([…], 14 days): 2.0% | Differential white blood cell count, % LUC ([…], 14 days): 0.6% | Differential white blood cell count, % LYMPH ([…], 14 days): 37.6% | Differential white blood cell count, % NEUT ([…], 14 days): 55.4% | Hematocrit ([…], 14 days): 38.2% | Hemoglobin ([…], 14 days): 12.6 g/dL | Hemoglobin distribution width ([…], 14 days): 2.29 g/dL | Mean corpuscular (cell) hemoglobin ([…], 14 days): 22.6 pg | Mean corpuscular (cell) hemoglobin concentration ([…], 14 days): 33.0 g/dL | Mean corpuscular (cell) volume ([…], 14 days): 68.7 fL | Platelet count ([…], 14 days): 307 10^3/μL | Red blood cell count ([…], 14 days): 5.56 10^6/μL | Red cell distribution width ([…], 14 days): 13.7% | Reticulocyte count ([…], 14 days): 1.84% | White blood cell count ([…], 14 days): 12.91 10^3/μL | Differential white blood cell count, % BASO ([…], 42 days): 1.4% | Differential white blood cell count, % EOS ([…], 42 days): 2.0% | Differential white blood cell count, % LUC ([…], 42 days): 0.8% | Differential white blood cell count, % LYMPH ([…], 42 days): 37.6% | Differential white blood cell count, % MONO ([…], 42 days): 5.1% | Differential white blood cell count, % NEUT ([…], 42 days): 53.1% | Hematocrit ([…], 42 days): 46.4% | Hemoglobin ([…], 42 days): 15.3 g/dL | Hemoglobin distribution width ([…], 42 days): 1.71 g/dL | Mean corpuscular (cell) hemoglobin ([…], 42 days): 22.4 pg | Mean corpuscular (cell) hemoglobin concentration ([…], 42 days): 33.0 g/dL | Mean corpuscular (cell) volume ([…], 42 days): 67.9 fL | Platelet count ([…], 42 days): 307 10^3/μL | Red blood cell count ([…], 42 days): 6.83 10^6/μL | Red cell distribution width ([…], 42 days): 12.4% | White blood cell count ([…], 42 days): 10.82 10^3/μL

Source: patent publication US20190015518A1, “DRUG DELIVERY COMPOSITIONS AND METHODS” (priority 2016, published 2019)
